Data: patent publication US20130280784A1, “ESCHERICHIA COLI EXPRESSION SYSTEM FOR PRODUCING MATURE HUMAN TYROSINASE AND A PRODUCING METHOD THEREOF” (PROVIDENCE UNIVERSITY, priority 2012, published 2013)
Values belong to the molecule of their own block, whether it stands above or below them.

Key:
[1] = system: tyrosinase isolated from Agaricus bisporus; details: cited from earlier work
[2] = molecular target: T1, tyrosinase of B16 mouse melanoma cells (Mus musculus, UniProt P11344); details: cited from earlier work
T1 construct: tyrosinase of B16 mouse melanoma cells; host or cells: B16 mouse melanoma cells
T1 sequence (P11344 19-533): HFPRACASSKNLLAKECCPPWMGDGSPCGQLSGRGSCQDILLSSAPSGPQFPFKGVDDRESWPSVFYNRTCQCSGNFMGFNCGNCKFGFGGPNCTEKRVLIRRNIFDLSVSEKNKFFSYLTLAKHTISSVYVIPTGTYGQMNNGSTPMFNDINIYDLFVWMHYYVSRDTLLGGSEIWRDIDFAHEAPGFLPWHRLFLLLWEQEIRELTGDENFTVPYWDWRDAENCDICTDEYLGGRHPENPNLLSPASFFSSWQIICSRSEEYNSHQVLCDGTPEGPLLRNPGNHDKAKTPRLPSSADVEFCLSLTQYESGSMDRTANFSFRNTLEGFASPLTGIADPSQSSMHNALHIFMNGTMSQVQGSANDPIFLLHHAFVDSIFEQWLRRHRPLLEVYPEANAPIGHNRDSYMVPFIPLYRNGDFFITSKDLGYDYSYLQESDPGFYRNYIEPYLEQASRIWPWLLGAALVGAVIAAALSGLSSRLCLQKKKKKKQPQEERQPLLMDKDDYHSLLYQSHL

[3] = enzyme activity assay of refolded recombinant human tyrosinase with L-Dopa as enzyme substrate (A475); type: biochemical; details: for Specificity / Total enzyme activity: 10 L of the starting material, L-Dopa as enzyme substrate
Method: In order to analyze the enzyme activity of the aforementioned refolded recombinant human tyrosinase, […] of 50 mM PBS buffer (pH 7.0), and […] crude extract containing refolded recombinant human tyrosinase were mixed and left standing for 5 minutes at 37° C. Subsequently, […] L-Dopa was added (to a final concentration of 3 mM) to the mixture as an enzyme substrate and reacted for 30 minutes at 37° C. The absorbance at A475 was measured using a spectrophotometer.
The final yield of the purification, the total amount of the proteins, the enzyme activity and the analysis of the specificity were summarized in Table 1. Table 1 summarizes the results of 10 L of the starting material, and L-Dopa was used as an enzyme substrate in the enzyme activity assay.

Molecule: α-arbutin
- inhibitory effects on tyrosinase [1]: does not exhibit any inhibitory effects
- inhibition of tyrosinase [2]: significantly inhibits

B1: recombinant human tyrosinase: mature human tyrosinase of 512 amino acids, about 57 kDa, expressed in E. coli BL21(DE3)/pET-23a(+)-RHT and refolded (protein, UniProt P14679 19-529, looked up)
Tyrosinase: HFPRACVSSKNLMEKECCPPWSGDRSPCGQLSGRGSCQNILLSNAPLGPQFPFTGVDDRESWPSVFYNRTCQCSGNFMGFNCGNCKFGFWGPNCTERRLLVRRNIFDLSAPEKDKFFAYLTLAKHTISSDYVIPIGTYGQMKNGSTPMFNDINIYDLFVWMHYYVSMDALLGGSEIWRDIDFAHEAPAFLPWHRLFLLRWEQEIQKLTGDENFTIPYWDWRDAEKCDICTDEYMGGQHPTNPNLLSPASFFSSWQIVCSRLEEYNSHQSLCNGTPEGPLRRNPGNHDKSRTPRLPSSADVEFCLSLTQYESGSMDKAANFSFRNTLEGFASPLTGIADASQSSMHNALHIYMNGTMSQVQGSANDPIFLLHHAFVDSIFEQWLRRHRPLQEVYPEANAPIGHNRESYMVPFIPLYRNGDFFISSKDLGYDYSYLQDSDPDSFQDYIKSYLEQASRIWSWLLGAAMVGAVLTALLAGLVSLLCRHKRKQLPEEKQPLLMEKEDYHSLYQSHL
- tyrosinase activity ([3]; after isolation from the crude extract using ion-exchange chromatography): 15.5 units/mg
- tyrosinase activity ([3]; by using gel filtration chromatography): 57.7 units 1 mg

The next lines start with results.

- Specificity [3]: 15.5 units/mg
B2: DEAE ion-exchange: recombinant human tyrosinase fractions after DEAE sepharose Fast Flow ion-exchange chromatography (protein, UniProt P14679 19-529, looked up)
Tyrosinase: B1 Tyrosinase
- Total enzyme activity [3]: 1383.1 units

- Specificity [3]: 57.7 units/mg
B3: Gel filtration: recombinant human tyrosinase fractions after Sephacryl S-100 HR gel filtration chromatography (protein, UniProt P14679 19-529, looked up)
Tyrosinase: B1 Tyrosinase
- Total enzyme activity [3]: 144.3 units
